Source: PMC8844856, “Structural basis of cyclic oligoadenylate binding to the transcription factor Csa3 outlines cross talk between type III and type I CRISPR systems” (The Journal of Biological Chemistry, 2022)
Positions count from the first letter of the chain named.

Legend:
Details in all cases: protein: recombinant; tags: N-terminal His6; chain copies: 2; cyclic; no ends
Csa3Sso F14A = molecular target: T1, Csa3Sso F14A (Saccharolobus solfataricus P2, UniProt Q97Y88 1-237, F14A); assay: MST; nonspecific signal at high cA4 only; MST buffer not given in the material; Cy5 EMSA: 50 nM probe, 0.5-25 uM protein, 5% acrylamide TBE, 4 C; agarose EMSA: 2% TBE, room temperature; crystals: 20 mM
T1 sequence: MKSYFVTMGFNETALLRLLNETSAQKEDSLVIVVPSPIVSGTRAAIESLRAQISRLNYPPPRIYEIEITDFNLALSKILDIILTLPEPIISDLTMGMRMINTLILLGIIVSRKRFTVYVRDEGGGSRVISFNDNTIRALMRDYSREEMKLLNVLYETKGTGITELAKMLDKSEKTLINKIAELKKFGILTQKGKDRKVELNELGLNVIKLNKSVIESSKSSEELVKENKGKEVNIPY

Csa3Sso G96A = molecular target: T2, Csa3Sso G96A (Saccharolobus solfataricus P2, UniProt Q97Y88 1-237, G96A); assay: as above
T2 sequence: T1 sequence with A14F, G96A

Csa3Sso R98A = molecular target: T3, Csa3Sso R98A (Saccharolobus solfataricus P2, UniProt Q97Y88 1-237, R98A); assay: as above
T3 sequence: T1 sequence with A14F, R98A

Csa3Sso F10A = molecular target: T4, Csa3Sso F10A (Saccharolobus solfataricus P2, UniProt Q97Y88 1-237, F10A); assay: as above
T4 sequence: T1 sequence with F10A, A14F

Csa3Sso E122Q = molecular target: T5, Csa3Sso E122Q (Saccharolobus solfataricus P2, UniProt Q97Y88 1-237, E122Q); assay: MST; MST buffer not given in the material; Cy5 EMSA: 50 nM probe, 0.5-25 uM protein, 5% acrylamide TBE, 4 C; agarose EMSA: 2% TBE, room temperature; crystals: 20 mM
T5 sequence: T1 sequence with A14F, E122Q

Csa3Sso E122A = molecular target: T6, Csa3Sso E122A (Saccharolobus solfataricus P2, UniProt Q97Y88 1-237, E122A); assay: as above
T6 sequence: T1 sequence with A14F, E122A

B1: cA4 (ssRNA)
RNA: AAAA
modifications: cyclic, 3'-5' linked tetra-adenylate (CHEBI:142457)
- binding result (Csa3Sso F14A): no binding
- binding result (Csa3Sso G96A): no binding
- binding result (Csa3Sso R98A): no binding
- binding result (Csa3Sso F10A): no binding
- Kd (Csa3Sso E122Q): 44.5 nM
- Kd (Csa3Sso E122A): 38.3 nM
